Measured values from the supplement of paper PMC10201428.
± gives the standard deviation of the averaged measurements.

B1: library; a variant is named by its letters at N, in order (parent)
chain: AATGTTGTTGATGCAACCATAAAGTGATATTTAATAATTATTTATAATCAGCAACTTAACCACAAAACAACCATATATTGATATNTCACAAAACAACCATAANTTGATATTTTTGTGAATCGAGTATTTCAGCAAAACTACTGCAGTAAGAA

Key:
[1] = variants of: B1; assay: relative integration efficiency (T-LR orientation) vs wild-type transposon end (log2 (normalized fold change)); transposon end mutated: left end; higher = more efficient transposition; settings: with VchCAST RNA-guided transposition machinery (E. coli BL21(DE3) host, lacZ target)
Method: (§1)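 Pooled, barcoded VchCAST (Tn6677) mini-transposon donor libraries; each variable transposon-end sequence sits in a fixed pDonor mini-transposon context (10-bp barcode and cargo not included). Left- or right-end libraries were co-transformed with pEffector (TniQ-Cascade, TnsABC, lacZ crRNA, T7, 0.1 mM IPTG) into E. coli BL21(DE3) and grown 18 h at 37 C. T-LR and T-RL junction amplicons were sequenced; output/input barcode fold change was normalised to the mean of four wild-type barcodes and log2-transformed. Two biological replicates; zero-count/undetected variants carry floor values (-10 / -15), censored here. Barcode uncoupling by PCR recombination adds noise.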

[2] = variants of: B1; assay: relative integration efficiency (T-RL orientation) vs wild-type transposon end (log2 (normalized fold change)); transposon end mutated: left end; higher = more efficient transposition; settings: with VchCAST RNA-guided transposition machinery (E. coli BL21(DE3) host, lacZ target)
Method: as §1

Row | Variant | relative integration efficiency (log2) [1] | relative integration efficiency (log2) [2]
1 | TA A22T G24T T31C A33C T76A T78A T84A C87A T104G T113A | -0.19 ± 0.56 | -0.579 ± 0.53
2 | TA A16C G24T T32G A33C T76A A77G C87T T104A T110A T113A | -0.782 ± 0.82 | -1.38 ± 0.49
3 | TA A16C G24T T30A A70C T76A T84A C87A T104A T110A T113A | -0.0907 ± 0.0099 | 0.0016 ± 0.4
4 | TA A16C G24T T32G A33C T76A A77G C87T A102T T111C T113C | -1.56 ± 0.58 | -1.11 ± 0.63
5 | TA A22T G24T T31C A33C A70C T76A T84A C87A T104G T113A | -0.566 ± 0.36 | -0.81 ± 0.5
6 | TA A16C G24T T30A T76A T78A T84A C87A A102T T111C T113C | -0.306 ± 1.3 | -0.415 ± 0.32
7 | TA A23G G24T A33T T76A A77G C87T A96C T112G T113C | -0.402 ± 0.62 | -0.2 ± 0.18
8 | TA A16C G24T T32G A33C A70C T76A T86G A96C T112G T113C | -1.11 ± 0.096 | -0.726 ± 0.16
9 | TA A23G G24T A33T T76A T78A T84A C87A A96C T110A T113A | 0.43 ± 0.2 | 0.182 ± 0.35
10 | TA A23G G24T A33T A70C T76A T84A C87A A96C T112G T113C | 0.304 ± 0.89 | 0.137 ± 0.19
11 | CA A16C G24T T32G A33C T104G T113A | -0.783 ± 0.61 | -0.765 ± 0.33
12 | CA A16C G24T T30A A96C T110A T113A | -0.499 ± 0.66 | -0.208 ± 0.19
13 | TA A16C G24T T32G A33C A70C T76A T84A C87A T104G T113A | -1.55 ± 1.7 | -0.951 ± 0.57
14 | TA A16C G24T T30A A70C T76A T86G A96C T112G T113C | -0.394 ± 0.73 | -0.421 ± 0.27
15 | TA A16C G24T T30A A70C T76A T84A C87A A102T T111C T113C | -0.517 ± 1.4 | -0.107 ± 0.55
16 | CA A16C G24T T30A A102T T111C T113C | -0.907 ± 1 | -0.887 ± 0.57
17 | TA A16C G24T T32G A33C T76A T78A T84A C87A A102T T111C T113C | -0.59 ± 0.77 | -0.405 ± 0.22
18 | TA A22T G24T T31C A33C T76A A77G C87T T104A T110A T113A | 0.0775 ± 0.37 | -0.819 ± 0.52
19 | CA A16C G24T T32G A33C A102T T111C T113C | -0.854 ± 0.58 | -0.751 ± 0.51
20 | TA A22T G24T T31C A33C T76A T78G C87A A96C T112G T113C | -0.491 ± 0.49 | -0.16 ± 0.22
21 | TA A16C G24T T30A T76A A77G C87T A96C T110A T113A | 0.1 ± 1.2 | -0.0467 ± 0.48
22 | TA A23G G24T A33T A70C T76A T86G T104G T113A | 0.529 ± 0.03 | -0.0666 ± 0.38
23 | TA A23G G24T A33T T76A A77G C87T T104A T110A T113A | 0.0613 ± 0.2 | -0.917 ± 0.47
24 | TA A23G G24T A33T A70C T76A T86G T104A T110A T113A | -0.032 ± 0.14 | -0.568 ± 0.3
25 | TA A22T G24T T31C A33C T76A A77G C87T A96C T110A T113A | 0.345 ± 0.28 | -0.753 ± 0.58
26 | TA A23G G24T A33T T76A T78A T84A C87A A96C T112G T113C | -0.309 ± 0.24 | 0.136 ± 0.2
27 | TA A16C G24T T30A T76A T78G C87A A96C T112G T113C | -0.557 ± 0.27 | -0.232 ± 0.21
28 | CA A16C G24T T32G A33C A96C T110A T113A | -1.02 ± 1.2 | -0.362 ± 0.31
29 | TA A16C G24T T30A T76A T78A T84A C87A T104A T110A T113A | 0.114 ± 0.83 | -0.0645 ± 0.35
